{"source": "paper doi:10.1101/2023.08.25.554913", "about": "(bioRxiv, 2023)", "molecular_target": "the molecule itself", "assay": "SEC"}
{"protein": "PfuAmyGT (PF0272) from Pyrococcus furiosus, wild type (enzyme, UniProt P49067 1-649, looked up) MGDKINFIFGIHNHQPLGNFGWVFEEAYEKCYWPFLETLEEYPNMKVAIHTSGPLIEWLQDNRPEYIDLLRSLVKRGQVEIVVAGFYEPVLASIPKEDRIEQIRLMKEWAKSIGFDARGVWLTERVWQPELVKTLKESGIDYVIVDDYHFMSAGLSKEELYWPYYTEDGGEVIAVFPIDEKLRYLIPFRPVDKVLEYLHSLIDGDESKVAVFHDDGEKFGIWPGTYEWVYEKGWLREFFDRISSDEKINLMLYTEYLEKYKPRGLVYLPIASYFEMSEWSLPAKQARLFVEFVNELKVKGIFEKYRVFVRGGIWKNFFYKYPESNYMHKRMLMVSKLVRNNPEARKYLLRAQCNDAYWHGLFGGVYLPHLRRAIWNNLIKANSYVSLGKVIRDIDYDGFEEVLIENDNFYAVFKPSYGGSLVEFSSKNRLVNYVDVLARRWEHYHGYVESQFDGVASIHELEKKIPDEIRKEVAYDKYRRFMLQDHVVPLGTTLEDFMFSRQQEIGEFPRVPYSYELLDGGIRLKREHLGIEVEKTVKLVNDGFEVEYIVNNKTGNPVLFAVELNVAVQSIMESPGVLRGKEIVVDDKYAVGKFALKFEDEMEVWKYPVKTLSQSESGWDLIQQGVSYIVPIRLEDKIRFKLKFEEASG", "values": [{"measurement": "stoichiometry N", "value": 2}]}
